The results in this text go back to a protein production outcome set (Wang et al. 2014).
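Note: failed if final PepcDB status was selected cloned or expressed and not failed if soluble or beyond.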

A short description of the data set: label from the status in PepcDB records.
For the sequence “MRAAFRTLGCKVNQVETEALLGFLKALEPEVVPLEAGGADLVVINSCAVTTTAEADTRKEVRRARRYNPHAFIVVTGCYAELAPEVLKELGADAVVPNARKAELPRVILERFGLPSDPITTPPNEFWGAGERGLLNSRVRAFLKVQDGCQAGCAYCIIPRLRGKERHRDHREALAEAEALLRMGIKEIVLTGVRLGSYKGHPRGLAGLVEDLYHLGAKVRLSSIEPEDTGEDLLKVIGRYAPEVRPHLHLSLQTGSDRLLKLMGRRYDKAYYRELVQRAYDLIPGFALTTDVIAGLPTETEEEHRETLAFLEELRPTRVHAFTYTPRPKTRAASMPQVPPEVRKRRTKELIALAQRLAEERIRPRLGERVEVLVERVQGGEALGHTPDYYEARLEGEARPGETVWARVHGVEGYVLLGRVEGVKEGARGPLELPVRLEHHHHHH”, the protein production result was “failed”.
Regarding “MRAASTSKPVGAHEETGHLGGAHSTYVSSAQVTNAEHENELQVVDLPRAPPSLSKAVTYFYITGFGRFALMEDNPTERVVLRLREILQDPGRVQMLHERLVRIVDLRILEVSAAAAHETLAEMKTQCLQMRQKPNISSDGRNRTVCFLHLGVDASADGFLVERSAVNEALFRFPDERGWQPTTPIPIVRGAQLGARYELDGEALASLCERTESLLNEWGRTNWTVRVNDDAGRFLCNYLFYLSAFEGLAENGHHLWQTFFLHCPMETVAPLDVQVDVVLAFMVAVAQSNAQQGPLEGILAR”, the protein production entry is listed as “not failed”.
As to “MRAGFFVGILGLAGAILQGANVTEAVGSELVLFPSGGGLSAIAAIVALLTAAVLVAVGIFTGYPIATAFTVTGAVVGVGLAMGGQPATAKYIEIVSLWVLTPFVGGGIAFGTAWSLRHEATTEERLVPLLGGLVGVILANIEFVLLAPGSEQASVARAVARAAGTPIFPSMVVVTLLIGVLAGGLLYLDIRADAAAGQRHFLLVMGGLVAFSAGGSQVGLALGPLVPLLGEGPTAAIPITGVLLFGGLGLLVGSWTGAPRMIKALAQDYSSLGPRRSIGALIPSFIIAQAAVFFGIPVSFNEIIVSAIVGSGAAAGGGEVSREKMGKTVLAWIGSLALAFALSYGLFWIIDAAL”, the protein production entry is listed as “failed”.
Turning to “MRAGIVGSGIMGRLLAFVLHNAGWQVSLFDRSNESMNCSTAAAGLLTPFSELDKSILLISTLGQESIKNCWPRIIEDLPESVYFQQSGSLVLCHPGDQAEWIHFSRRILSQLNPSNSVFQKLSHENLIALEPELTKFETAYYFPNEAHIDCQTLMLSLKNYLDSVCIPHITNTPVLSLKPGEINTKEQRYHFDVVFDCRGLGAQNVFSDLRGIRGELIWLHAPGVQLHRPIRLLHPRYSLYLVPRPGNFYLIGASEIEAEDFSPVSVRTALELLTAVYYLHRNFDEARIIKTVTHCRPTLVNHLPRIKFADGLIAVNGLYRHGYLIAPALAEEILRGVTSNFRHLNYPELWENYCDLEHHHHHH”, the protein production result is reported as “failed”.
With “MRAHTLSRQLREGNLFAEQCPSREVLKHVTSRWGVLILVALRDGTHRFSDLRRKMGGVSEKMLAQSLQALEQDGFLNRVSYPVVPPHVEYSLTPLGEQVSDKVAALADWIELNLPQVLAQRERLSDGG” the entry was “not failed”; with “MRAILILLDGLGDRASEILNNKTPLQFAKTPNLDRLAENGMCGLMTTYKEGIPLGTEVAHFLLWGYSLEEFPGRGVIEALGEDIEIEKNAIYLRASLGFVKKDEKGFLVIDRRTKDISREEIEKLVDSLPTCVDGYKFELFYSFDVHFILKIKERNGWISDKISDSDPFYKNRYVMKVKAIRELCKSEVEYSKAKDTARALNKYLLNVYKILQNHKINRKRRKLEKMPANFLLTKWASRYKRVESFKEKWGMNAVILAESSLFKGLAKFLGMDFIKIESFEEGIDLIPELDYDFIHLHTKETDEAAHTKNPLNKVKVIEKIDKLIGNLKLREDDLLIITADHSTPSVGNLIHSGESVPILFYGKNVRVDNVKEFNEISCSNGHLRIRGEELMHLILNYTDRALLYGLRSGDRLRYYIPKDDEIDLLEG”, “failed”; with “MRAKITYAVTAAVLVVYFVLVGSRGVLLIQNGTLVTVTFGVAVLILPVIGVWFLWKNTQFVRKANALAAELDAEGGLPVDELRRTPGGRIDRDSADEVFARRKAETEDAPGDWRSWFRLAVAYHDARDTPRARKAMQRAIALHEGRPVEA”, “failed”.
For “MRAPLPELPAGTRFGAWAIDRLIGAGGMGQVYLGHRADGAYEREVAIKLVAADALDAQGRALFEFECRLLAQMVHPAIAQIHDVGTDAHGQPYLVMEYLRGEPITWWCDEHRLSLHARVLLMLRVGEAVQHAHQKGVIHRDLKPSNVLVSEIDGRPMPGVIDFGIAVDATNPGMTYAHDRGTPGYMSPEQARGAQDVDARSDIYALGAMFYELSCGLAPVAGRDGVPQPPSQRVAAVPADARARICAARATTYQKLHEQLRDGLDAIVLRALEPQPGARYASVSALLDDLHRWLDGYPPRALQASRWLRLRKFTQRHRSGVAAAGLAAIAVVAGLGATLWSLQQAARDAQRAQVTGDFMSSVLSSVDPGVARDLDKTLMLRVMQQASQRAARELADQPDARTQVELTLGRTLIALANFPQAVEHLRIAQTLAQQTAGAGSLPALKAASMLGQALTGDGKPGDAERVLRQGIAQAARGDAQQQAMGNELRAWLAWALREQGRMRDALAESRHAYVAALANASSSADQRIDAGNSYAAMLADNGQLVPAIALQRSLLRERMAMRGPEHPLVVSMRNSLAVFLLMQRDFAGAEAELVPLLRVTRTLYGESAADTLMIEGNLAGALRQQGKVAEAGPYYRRALERARAAFGNDAPVTIAYRSNHAFWLLDDGQVDASLAEQRAALTASERVLGRAHPQTAEILRGMSEAERRLGQTVAARDHARQALQILTGIFGDADAPLRAARQTLASATPPADSREAEATTAVAQR”, the protein production result is “failed”.
As to “MRARLYAAFRQVGEDLFAQGLISATAGNFSVRTKGGFLITKSGVQKARLTPEDLLEVPLEGPIPEGASVESVVHREVYRRTGARALVHAHPRVAVALSFHLSRLRPLDLEGQHYLKEVPVLAPKTVSATEEAALSVAEALREHRACLLRGHGAFAVGLKEAPEEALLEAYGLMTTLEESAQILLYHRLWQGAGPALGGGE”, the protein production result is “not failed”.
Turning to “MRARPYPTSTYFVSTADGRLPAMSQPIAAPFRQQLLDLVARIPPGRVMTYGQLALLAGQPGAARQAGAVMHSLKDSDLPWQRVINAQGRVSTYKVGLGEVQEGLLRAEGIEFDDAGRCDLSRYQWWPDENAANIAQRLL”, the protein production result is reported as “failed”.
With “MRASHETTTSMGHDHNHAPSEIRHETPLWWALGLTATFLLAEIIGAFVTNSLALLSDAAHMATDTVGLMIALVAVRLSRRPADARRTYGYVRLEALGALANGALLFAVGGYILWEAAQRVRAPQDIAYGGMLLIAGFGLVINLIAMKLLHAGSGESLNVKGAYLEVWSDMLGSMAVIIGALLIHWTSWQWIDPVLAVLIGLWVLPRTWVLLREAINVLLEGVPKGIDLAQVQQALTSHPGVEDVHDLHVWALASSTPALTAHIVVNEATDRDRLRDALATLLHDRFDIVHVTLQVESGDCGTEPCGTPKPAADAGHDAHHGHSHAHGHSHH” the entry was “failed”.
The result for “MRAVIPYKKAGAKSRLSPVLSLQEREEFVELMLNQVISSLKGAGIEQVDILSPSVYGLEEMTEARVLLDEKDLNEALNRYLKEAEEPVLIVMADLPLLSPEHIKEISSTEKDVCIVPGKGGGTNALFIKNPSKYRVKYYGSSFLTHCSIATDSGQDFEIYDSFMAGTDIDEPEDLVELLIHGKGAAKDYIESKFRLEVKKGRVGLVPL” reads “not failed”; that for “MRAVLTWRDKAEHCINDIAFKPDGTQLILAAGSRLLVYDTSDGTLLQPLKGHKDTVYCVAYAKDGLWSPEQKSVSKHKSSSKIICCSWTNDGQYLALGMFNGIISIRNKNGEEKVKIERPGGSLSPIWSICWNPSREERNDILAVADWGQKVSFYQLSGKQIGKDRALNFDPCCISYFTKGEYILLGGSDKQVSLFTKDGVRLGTVGEQNSWVWTCQAKPDSNYVVVGCQDGTISFYQLIFSTVHGLYKDRYAYRDSMTDVIVQHLITEQKVRIKCKELVKKIAIYRNRLAIQLPEKILIYELYSEDLSDMHYRVKEKIIKKFECNLLVVCANHIILCQEKRLQCLSFSGVKEREWQMESLIRYIKVIGGPPGREGLLVGLKNGQILKIFVDNLFAIVLLKQATAVRCLDMSASRKKLAVVDENDTCLVYDIDTKELLFQEPNANSVAWNTQCEDMLCFSGGGYLNIKASTFPVHRQKLQGFVVGYNGSKIFCLHVFSISAVEVPQSAPMYQYLDRKLFKEAYQIACLGVTDTDWRELAMEALEGLDFETAKKAFIRVQDLRYLELISSIEERKKRGETNNDLFLADVFSYQGKFHEAAKLYKRSGHENLALEMYTDLCMFEYAKDFLGSGDPKETKMLITKQADWARNIKEPKAAVEMYISAGEHVKAIEICGDHGWVDMLIDIARKLDKAEREPLLLCATYLKKLDSPGYAAETYLKMGDLKSLVQLHVETQRWDEAFALGEKHPEFKDDIYMPYAQWLAENDRFEEAQKAFHKAGRQREAVQVLEQLTNNAVAESRFNDAAYYYWMLSMQCLDIAQADPAQKDTMLGKFYHFQRLAELYHGYHAIHRHTEDPFSVHRPETLFNISRFLLHSLPKDTPSGISKVKILFTLAKQSKALGAYRLARHAYDKLRGLYIPARFQKSIELGTLTIRAKPFHDSEELVPLCYRCSTNNPLLNNLGNVCINCRQPFIFSASSYDVLHLVEFYLEEGITDEEAISLIDLEVLRPKRDDRQLEIANNSSQILRLVETKDSIGDEDPFTAKLSFEQGGSEFVPVVVSRLVLRSMSRRDVLIKRWPPPLRWQYFRSLLPDASITMCPSCFQMFHSEDYELLVLQHGCCPYCRRCKDDPGP”, “failed”.
With “MRCLRHARRQSQGVRGGRGMARADRGDGDGDAEAEDGRHSTASDARLTQLLRTDTATAYPALRELRTRHRPAVLGYARLCTVDDAAARRLTAQAFALAARDTARGSDPRGPWRHQLLLLAGRVAASWAADERAARLDPDLLAHLGAAGSRAQVPPLLAAFQSLPSRVQGVVWYAVVEGEPDDRTADFVGLTREDVTYGTEPAFQSLRQSCLTTRLAASDDPRCQDFRRLIEESVRPDNPRYSADLHAHMVHCVYCATAYDELSALRDDPRTALAAGLLAWGGAAYVTGGAVTRRAVAGGPGPSGPGPGDPGPGPAPGWWPSRRFVLASTALGVALIPFLAYLLVSGGPEPERAANAVATPSRPPAVTVTATVSATPSPSPSHTAGKSPKPSRSPSASKTTRPPSPKPSPKPPAPHPPNGSFAQVVNADSGLCLDIRDGVMDLGTDVVTAPCTSSRTQRWRVDTARGVLQSSEDPDFCLDSRGSTDRGVGIWECGAVYGRNGRNLRFTVDAQGVIRPAVAPDHAVTPYGDALFLVPAEGRAAQRWRAGAA” the entry was “failed”; with “MRCRFPYDGKQRIILEEGYPVYECNKFCGCSRTCQNRVLQNGIRAKLEVFRTESKGWGLRACEHILRGTFVCEYIGEVLDQQEANKRRNQYGNGDCSYILDIDANINDIGRLMEEELDYAIDATTHGNISRFINHSCSPNLVNHQVIVESMESPLAHIGLYASMDIAAGEEITRDYGRRPVPSEQENEHPCHCKATNCRGLLS”, “failed”.
As for “MRDMEFIEWYPRGYGVAFKVKRKILEEQSEYQKIEVYETEGFGKLLAIDGTVQLVTEGEKSYHEPLVHPAMLAHPNPRRVLIIGGGDGGAIREVLKHEEVEEVIMVEIDKKVIEISAKYIGIDGGILEKMLSDKHEKGKLIIGDGVKFIEENSGFDVIIVDSTDPVGPAEMLFSEEFYKNAYRALNDPGIYVTQAGSVYLFTDEFLTAYRKMRKVFDKVYYYSFPVIGYASPWAFLVGVKGSIDFMKVDAEKGKKLGLEYYDPDKHETLFQMPRYIVQML”, the protein production result was “not failed”.
With “MRDPVSRLPNREQFQSDLYDLADENPGERRVLVLVDAVDMTVAHELTLAMGLAPFETIVRFLAQQLLAYLGRHVRVYHVSVKRFGFLLPAAPGIERFLESLVRRLRRQPPGLELPMIPGVCAGTVEFSTDRDAVPDVLRKAMFALELATLNRSTWAPYDVVRLEHHHHHH”, the protein production result is recorded as “failed”.
